Paper PMC12607020, “NITAC-mediated ISGylation of eIF4E2 attenuates GSK3β proline-directed kinase activity, conferring cytoprotection” (The Journal of Biological Chemistry, 2025)

T1: GST-eIF4E2 (UniProt O60573 1-245)
T1 construct: eukaryotic translation initiation factor 4E family member 2 (eIF4E2, 4EHP); also called GST-tagged eIF4E2; source: E. coli BL21, purified (glutathione sepharose beads)
T1 sequence (looked up): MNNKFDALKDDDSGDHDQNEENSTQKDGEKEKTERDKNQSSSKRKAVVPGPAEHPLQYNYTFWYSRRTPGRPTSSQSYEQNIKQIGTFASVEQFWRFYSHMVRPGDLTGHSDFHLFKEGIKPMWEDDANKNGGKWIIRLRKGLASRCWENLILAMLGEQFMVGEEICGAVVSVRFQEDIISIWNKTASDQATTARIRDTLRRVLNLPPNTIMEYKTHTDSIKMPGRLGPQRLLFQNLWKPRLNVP

B1: His6-tagged Nb.28E11 (VHH)
VHH: QVQLQESGGGLVQAGGSLRLSCAASGRTFSSYAMGWFRQAPGKEREFVAAISSGGSITNYADSVKGRFTISRDNAKNTVYLQMNSLKPEDTAVYYCAARYHSLYYGYWGQGTQVTVSS
notes: nanobody from a synthetic yeast-display library; also called His6-Nb.28E11; source: E. coli BL21, purified (Ni-NTA)
B2: His6-tagged Nb.30C7 (VHH)
VHH: QVQLQESGGGLVQAGGSLRLSCAASGYTFSSNVMGWFRQAPGKEREFVAAINSGGGRTNYADSVKGRFTISRDNAKNTVYLQMNSLKPEDTAVYYCAAYGRANSSYNYGYWGQGTQVTVSS
notes: nanobody from a synthetic yeast-display library; also called His6-Nb.30C7; source: E. coli BL21, purified (Ni-NTA)

Molecular target: T1, GST-eIF4E2
Experiment: pull-down; GST pull-down: 1 nM His6-tagged and 1 nM GST-tagged protein in 50 mM Hepes pH 7.5, 50 mM NaCl, 2 mM EDTA, 0.1% NP-40, 10% glycerol, 2 h at 4 °C; glutathione-sepharose beads; immunoblot
Settings: both partners purified

| Binder | binding result |
| --- | --- |
| B1 | binds |
| B2 | binds |
